Results: US10538802B2, “Polypeptide substrate for the detection of von Williebrand factor cleaving protease ADAMTS13” (IMMUCOR GTI DIAGNOSTICS, INC., priority 2011, dated 2020)

Molecular target: T1, ADAMTS13 (Homo sapiens, UniProt Q76LX8)
T1 construct: tissue Gen-Probe GTI Diagnostics (ATS-13 kit calibrators, controls and proficiency samples); George King Biomedical Inc. (FACT, A-FACT, B-FACT plasmas) ATS-13; host or cells: plasma
T1 sequence (Q76LX8 75-1427): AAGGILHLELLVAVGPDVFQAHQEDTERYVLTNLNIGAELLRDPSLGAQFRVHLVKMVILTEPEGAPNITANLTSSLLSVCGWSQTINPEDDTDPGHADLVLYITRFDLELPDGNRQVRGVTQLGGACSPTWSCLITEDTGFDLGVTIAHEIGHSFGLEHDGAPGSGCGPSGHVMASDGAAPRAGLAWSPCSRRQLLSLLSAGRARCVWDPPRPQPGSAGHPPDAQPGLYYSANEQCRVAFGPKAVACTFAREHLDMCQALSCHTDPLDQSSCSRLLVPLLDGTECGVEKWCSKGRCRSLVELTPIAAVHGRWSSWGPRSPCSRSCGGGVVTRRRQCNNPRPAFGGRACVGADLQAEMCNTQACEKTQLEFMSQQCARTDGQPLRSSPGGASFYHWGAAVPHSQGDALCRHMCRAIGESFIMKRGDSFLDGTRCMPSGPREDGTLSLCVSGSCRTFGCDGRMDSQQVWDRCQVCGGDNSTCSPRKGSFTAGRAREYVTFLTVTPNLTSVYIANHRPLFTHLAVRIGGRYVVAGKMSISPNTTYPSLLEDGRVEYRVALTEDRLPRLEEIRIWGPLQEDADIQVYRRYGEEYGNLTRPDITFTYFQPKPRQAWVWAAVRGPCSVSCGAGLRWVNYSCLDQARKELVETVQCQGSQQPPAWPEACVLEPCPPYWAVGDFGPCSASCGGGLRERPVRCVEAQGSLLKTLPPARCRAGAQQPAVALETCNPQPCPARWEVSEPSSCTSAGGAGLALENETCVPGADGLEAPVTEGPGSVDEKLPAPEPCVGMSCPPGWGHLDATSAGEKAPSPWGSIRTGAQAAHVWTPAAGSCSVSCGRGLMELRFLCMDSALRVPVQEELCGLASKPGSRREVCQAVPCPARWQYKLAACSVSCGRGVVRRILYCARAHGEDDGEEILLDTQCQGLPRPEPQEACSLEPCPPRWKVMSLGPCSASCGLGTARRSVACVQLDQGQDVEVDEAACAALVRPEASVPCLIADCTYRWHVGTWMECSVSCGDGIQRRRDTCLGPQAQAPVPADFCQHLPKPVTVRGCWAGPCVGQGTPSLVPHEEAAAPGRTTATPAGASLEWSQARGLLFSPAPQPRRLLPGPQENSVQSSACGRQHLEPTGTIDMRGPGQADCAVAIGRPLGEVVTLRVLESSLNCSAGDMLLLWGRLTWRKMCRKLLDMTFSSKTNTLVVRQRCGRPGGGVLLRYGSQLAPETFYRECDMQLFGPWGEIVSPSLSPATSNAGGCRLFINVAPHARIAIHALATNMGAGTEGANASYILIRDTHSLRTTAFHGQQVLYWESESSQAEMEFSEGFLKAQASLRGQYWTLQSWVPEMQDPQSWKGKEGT
Test: ADAMTS13 activity assay with fluorogenic (FRET) polypeptide substrate and diluted plasma samples
Format: biochemical
Conditions: for % Normal ADAMTS13 Activity: 30 Minute Incubation Time: Table 5
Description: The procedure in this example was performed substantially as described in Kokame, K., Y. Nobe, Y. Kokubo, A. Okayama, and T. Miyata. 2005. FRETS-VWF73, a first fluorogenic substrate for ADAMTS13 assay. Br. J. Haematol. 129:93-100, but using SEQ ID NO: 1 in place of the 73 amino acid substrate described therein. The FRETS-VWF73 substrate solution was dissolved in 25% dimethyl sulphoxide/water to prepare the 100 microM stock solution. The GTI FRET4 SEQ ID NO: 1 was dissolved in 100% DMSO. Both substrates were diluted to equal concentrations using ATS-13 substrate buffer (Gen-Probe GT1 Diagnostics, Inc., U.S.A., Cat#ATS-13).
Plasma samples were diluted according to the ATS-13 Direction Insert using ATS-13 specimen diluent (Gen-Probe GTI Diagnostics, Inc., U.S.A., Cat# ATS-13). The diluted plasma samples were mixed with the diluted substrate and the fluorescence was read at 0, 5, 10, 15, 20, 30, 45 minutes using a Biotek FLX800 at the appropriate excitation and emission wavelengths for each substrate.
The fluorophore-quencher pair in the SEQ ID NO: 1 polypeptide substrate is FAM-5/TQ 2^Tm (Ex 485±20; Em 528±20; AAT Bioquest, Inc. Sunnyvale, Calif. U.S.A.). The fluorophore and quencher pair of FRETS-VWF73 (Nma/Dnp) described in Kokame has been substituted with FAM-5 and TQ_2 respectively in GTI_FRET4 SEQ ID NO: 1. Furthermore, in the SEQ ID NO: 1 polypeptide the position of the fluorophore (FAM-5) and quencher (TQ_2) has been swapped relative to the position of the fluorophore and quencher of the FRETS-VWF73 construct. Therefore, for GTI_FRET4 SEQ ID NO: 1, attachment of the fluorophore (FAM-5) occurs by substituting asparagine with cystine at position 15. The quencher (TQ_2) was attached by substituting glutamine with lysine at position 4 (FIG. 2 and Table 4).
For this experiment, substrate concentration and fluorescence reader settings determined on the previous experiment are used. The specimens tested (listed in Table 3), include a panel of proficiency samples prepared for use with ATS-13 (Gen-Probe GTI Diagnostics, Inc., U.S.A., Cat# ATS-13) which included samples with normal or deficient ADAMTS13 activity levels. In addition, six Factor Assay ConTrol plasma were used (2 FACT, 2 A-FACT and 2 B-FACT, from George King Biomedical Inc., Kansas, USA). The assays for the SEQ ID NO: 1 substrate and for the prior art FRETS-VWF73 assay were performed generally as according to the procedure described in Example 1. Substrate is prepared according to the conditions used for initial testing of the substrate, which prepared the molar amount of SEQ ID NO: 1 polypeptide substrate used in the assay to be equivalent to the molar amount of FRETS-VWF73 used in the prior art. The […] assays were read at 0, 5, 10, 15, 20, 30, 45 minutes.
Testing of substrate for cleavability by ADAMTS13 is determined as is generally described in Example 1. […]

In the case of “DREKAPNLVYMVTGCPASDEIKRLPGDIQVVPIEVIGWPNAPILIQDEETLPREAPDLVLQR [GTI_FRET4]”, the “time through which the calibration curve continued to be linear” value is reported as at most 45 min, the “trend line of the calibration curve” value is reported as “linear” and the “time at which the calculated % N ADAMTS13 activity plateaus” value (Example 1) is reported as 30 min. The “difference between Calibrator A (0% ADAMTS13 activity) and Calibrator E (100% ADAMTS13 activity), dynamic range” value (Example 1, at 30 minutes) was “approximately 34,000 RFU”, the “difference between Calibrator A and E, dynamic range” value (Example 2, at 30 minutes) was “approximately 35000 RFU” and the “% Normal ADAMTS13 Activity: 30 Minute Incubation Time” value (“% Normal ADAMTS13 Activity” for short) (sample 5 (ATS13-5)) was 7 % Normal. For the same sequence, the “% Normal ADAMTS13 Activity” value (sample 22 (ATS13-4)) was 21 % Normal, the “% Normal ADAMTS13 Activity” value (sample 50 (ATS13-3)) was 47 % Normal and the “% Normal ADAMTS13 Activity” value (sample 72 (ATS13-2)) was 72 % Normal. The “% Normal ADAMTS13 Activity” value (sample 90 (ATS13-1)) was 92 % Normal, the “% Normal ADAMTS13 Activity” value (sample A-FACT lot 900) was 10 % Normal and the “% Normal ADAMTS13 Activity” value (sample A-FACT lot 1284) was 10 % Normal. The “% Normal ADAMTS13 Activity” value (sample B-FACT lot 1114) was 45 % Normal, the “% Normal ADAMTS13 Activity” value (sample B-FACT lot 1266) was 46 % Normal and the “% Normal ADAMTS13 Activity” value (sample BCM2) was 19 % Normal. For the same sequence, the “% Normal ADAMTS13 Activity” value (sample BCM2 HI) was 12 % Normal, the “% Normal ADAMTS13 Activity” value (sample BCM2 mixed) was 51 % Normal and the “% Normal ADAMTS13 Activity” value (sample CNTL) was “<Calibrator A”. The “% Normal ADAMTS13 Activity” value (sample CNTL HI) was “<Calibrator A”, the “% Normal ADAMTS13 Activity” value (sample CNTL mixed) was 4 % Normal and the “% Normal ADAMTS13 Activity” value (sample Calibrator A) was 4 % Normal. The “% Normal ADAMTS13 Activity” value (sample Calibrator B) was 9 % Normal, the “% Normal ADAMTS13 Activity” value (sample Calibrator C) was 29 % Normal and the “% Normal ADAMTS13 Activity” value (sample Calibrator D) was 61 % Normal. For the same sequence, the “% Normal ADAMTS13 Activity” value (sample Calibrator E) was 110 % Normal, the “% Normal ADAMTS13 Activity” value (sample FACT lot 222e1) was 111 % Normal and the “% Normal ADAMTS13 Activity” value (sample FACT lot 1223) was 107 % Normal. For the same sequence, the “% Normal ADAMTS13 Activity” value (sample NPP032206) was “>Calibrator E”, the “% Normal ADAMTS13 Activity” value (sample NPP032206 HI) was 9 % Normal and the “% Normal ADAMTS13 Activity” value (sample NPP032206 at 37C) was 106 % Normal. The “% Normal ADAMTS13 Activity” value (sample NPP032206 mixed) was 57 % Normal, the “% Normal ADAMTS13 Activity” value (sample Positive Control High) was 50 % Normal and the “% Normal ADAMTS13 Activity” value (sample Positive Control Low) was 14 % Normal. For the same sequence, the “% Normal ADAMTS13 Activity” value (sample UAMS041609) was 31 % Normal, the “% Normal ADAMTS13 Activity” value (sample VF040901) was 10 % Normal and the “Increase in Fluorescence Values (X minute - 0 minute Reading)” value (“Increase in Fluorescence Values” for short) (sample Calibrator A, 15 min) was 676 RFU. For the same sequence, the “Increase in Fluorescence Values” value (sample Calibrator A, 30 min) was 843 RFU, the “Increase in Fluorescence Values” value (sample Calibrator A, 45 min) was 921 RFU and the “Increase in Fluorescence Values” value (sample Calibrator A, 60 min) was 1,166 RFU. The “Increase in Fluorescence Values” value (sample Calibrator A, 75 min) was 1,013 RFU, the “Increase in Fluorescence Values” value (sample Calibrator A, 90 min) was 959 RFU and the “% Normal ADAMTS13 Values Calculated Using GTI_FRET4 Substrate” value (sample Calibrator A, incubation 15 Minutes) was 1 % Normal. For the same sequence, the “% Normal ADAMTS13 Values Calculated Using GTI_FRET4 Substrate” value (sample Calibrator A, incubation 30 Minutes) was 1 % Normal, the “% Normal ADAMTS13 Values Calculated Using GTI_FRET4 Substrate” value (sample Calibrator A, incubation 45 Minutes) was 0 % Normal and the “% Normal ADAMTS13 Values Calculated Using GTI_FRET4 Substrate” value (sample Calibrator A, incubation 60 Minutes) was 0 % Normal. For the same sequence, the “% Normal ADAMTS13 Values Calculated Using GTI_FRET4 Substrate” value (sample Calibrator A, incubation 75 Minutes) was 0 % Normal, the “% Normal ADAMTS13 Values Calculated Using GTI_FRET4 Substrate” value (sample Calibrator A, incubation 90 Minutes) was 0 % Normal and the “Increase in Fluorescence Values” value (sample Calibrator B, 15 min) was 1,765 RFU. For the same sequence, the “Increase in Fluorescence Values” value (sample Calibrator B, 30 min) was 3,000 RFU, the “Increase in Fluorescence Values” value (sample Calibrator B, 45 min) was 4,164 RFU and the “Increase in Fluorescence Values” value (sample Calibrator B, 60 min) was 5,358 RFU. For the same sequence, the “Increase in Fluorescence Values” value (sample Calibrator B, 75 min) was 6,468 RFU, the “Increase in Fluorescence Values” value (sample Calibrator B, 90 min) was 7,581 RFU and the “% Normal ADAMTS13 Values Calculated Using GTI_FRET4 Substrate” value (sample Calibrator B, incubation 15 Minutes) was 7 % Normal. For the same sequence, the “% Normal ADAMTS13 Values Calculated Using GTI_FRET4 Substrate” value (sample Calibrator B, incubation 30 Minutes) was 7 % Normal, the “% Normal ADAMTS13 Values Calculated Using GTI_FRET4 Substrate” value (sample Calibrator B, incubation 45 Minutes) was 7 % Normal and the “% Normal ADAMTS13 Values Calculated Using GTI_FRET4 Substrate” value (sample Calibrator B, incubation 60 Minutes) was 7 % Normal. The “% Normal ADAMTS13 Values Calculated Using GTI_FRET4 Substrate” value (sample Calibrator B, incubation 75 Minutes) was 6 % Normal, the “% Normal ADAMTS13 Values Calculated Using GTI_FRET4 Substrate” value (sample Calibrator B, incubation 90 Minutes) was 6 % Normal and the “Increase in Fluorescence Values” value (sample Calibrator C, 15 min) was 6,178 RFU. For the same sequence, the “Increase in Fluorescence Values” value (sample Calibrator C, 30 min) was 11,701 RFU, the “Increase in Fluorescence Values” value (sample Calibrator C, 45 min) was 16,807 RFU and the “Increase in Fluorescence Values” value (sample Calibrator C, 60 min) was 21,705 RFU. The “Increase in Fluorescence Values” value (sample Calibrator C, 75 min) was 26,685 RFU, the “Increase in Fluorescence Values” value (sample Calibrator C, 90 min) was 32,209 RFU and the “% Normal ADAMTS13 Values Calculated Using GTI_FRET4 Substrate” value (sample Calibrator C, incubation 15 Minutes) was 32 % Normal. The “% Normal ADAMTS13 Values Calculated Using GTI_FRET4 Substrate” value (sample Calibrator C, incubation 30 Minutes) was 33 % Normal, the “% Normal ADAMTS13 Values Calculated Using GTI_FRET4 Substrate” value (sample Calibrator C, incubation 45 Minutes) was 33 % Normal and the “% Normal ADAMTS13 Values Calculated Using GTI_FRET4 Substrate” value (sample Calibrator C, incubation 60 Minutes) was 34 % Normal. The “% Normal ADAMTS13 Values Calculated Using GTI_FRET4 Substrate” value (sample Calibrator C, incubation 75 Minutes) was 35 % Normal, the “% Normal ADAMTS13 Values Calculated Using GTI_FRET4 Substrate” value (sample Calibrator C, incubation 90 Minutes) was 36 % Normal and the “Increase in Fluorescence Values” value (sample Calibrator D, 15 min) was 10,887 RFU. For the same sequence, the “Increase in Fluorescence Values” value (sample Calibrator D, 30 min) was 20,626 RFU, the “Increase in Fluorescence Values” value (sample Calibrator D, 45 min) was 29,206 RFU and the “Increase in Fluorescence Values” value (sample Calibrator D, 60 min) was 37,289 RFU. For the same sequence, the “Increase in Fluorescence Values” value (sample Calibrator D, 75 min) was 44,543 RFU and the “Increase in Fluorescence Values” value (sample Calibrator D, 90 min) was 53,613 RFU.
